Bridge positions count the residues as written; N and C are the ends. Square brackets hold non-standard residues; d marks the D form. Ends that are not written are not given here. Orn = NCCC[C@H](N)C(=O)O
Biological target: glucagon receptor (GCGR)
Test: cell-based or functional assay

Binder | EC50, cell-based cyclic AMP (cAMP) activity assay [nM]
HSQGTFTSDYS[Orn]KLDSE[Orn]AQDFVQWLMNTEEK (lactam 13-17) [O12, O18, K13, E17-Lactam-Glucagon-EEK] | 126
HSQGTFTSDYS[Orn]YLDS[Orn][Orn]AQDFVQWLMNTEEK [Glucagon-EEK] | 93.5

Reference: patent publication US20240116999A1 (TRUSTEES OF INDIANA UNIVERSITY, published 2024)
